Measurements: patent US5064430A, “Polynonapeptide bioelastomers having an increased elastic modulus” (UAB Research Foundation, priority 1989, dated 1991)
Where two headings read alike, the source gives them in different places. Ends that are not written are not given here.

What was measured:
[1] = Temperature profiles of turbidity formation / coacervation (light scattering at 300 nm); type: physicochemical; conditions: for onset of aggregation (coacervation): high molecular weight polymer in water; for midpoint of the temperature profile of turbidity formation / coacervation: 40 mg/ml (high concentration limit)
Description: FIG. 3 illustrates temperature profiles of turbidity (TP.tau.) data for poly(VPGFGVGAG) at 40 mg/ml and 1 mg/ml concentrations in H2 O. The aggregational process was monitored by measuring light scattering at 300 nm as a function of temperature using a Cary 14 recording spectrophotometer.
The temperature dependence for aggregation of the polypentapeptide is followed as the development of turbidity at 300 nm using a Cary 14 spectrophotometer. The sample cell is placed within a chamber vibrating at 300 Hz in order to facilitate equilibrium and to keep the aggregates from settling. The scan rate is 30° C./hour and the temperature was controlled with a Neslab ETP-3 programmer and monitored with an Omega 199A thermocouple monitor placed at the cell. The turbidity as a function of temperature provides a temperature profile for coacervation which is found to be concentration dependent. As the concentration is raised, the profile shifts to lower temperatures until further increases in concentration cause no further lowering of the temperature for aggregation. This defines the high concentration limit. The temperature for the onset of coacervation at the high concentration limit coincides with the temperature for the onset of the transition within the coacervate itself, even when there is no appreciable change in water content of the coacervate. […] When the midpoint is 25° C. for the PPP, the molecular weight is close to 100,000 daltons as calibrated by dialysis. For the Ile^1 -PPP with a midpoint of 9° C., the molecular weight is greater than 50,000 daltons, as the synthetic polypeptide was retained by a 50,000 daltons dialysis membrane. The dialysis was carried out at 4° C. where the Ilel-PPP is in solution.
Polypeptide coacervation in water is reversible aggregation to form a new phase with a distinct composition. Association occurs on raising the temperature, disassociation on lowering the temperature. The process of coacervation was followed by monitoring the turbidity as a function of temperature using a Cary 14 spectrophotometer set at 300 nm, a Neslab ETP-3 temperature programmer with a 30° C./hour scan rate and an Omega 199A thermocouple monitor. The sample cell was placed in a vibrating chamber (300 Hz) to keep the aggregates from settling and to facilitate equilibrium. The temperature profiles for coacervation are concentration dependent. Dilution from a high concentration, after the high concentration limit is reached (approximately 40 mg/ml for high molecular weight elastomeric polypeptides), results in a shift of the turbidity profile to higher temperature.

[2] = Thermoelasticity studies (elastomeric force as a function of temperature); type: physicochemical; conditions: γ-irradiation cross-linked (20 Mrad), fixed extension (40%), in water
Description: Thermoelasticity studies were carried out on a stress-stain instrument built in this Laboratory. The sample is mounted in two Delrin clamps. The top clamp is attached to a Statham UTC strain-gauge and the assembly is fixed. The bottom clamp is attached to a moving platform driven by a variable speed motor. Both clamps are enclosed in a thermostated water jacket. An inner chamber contains the solvent in which the elastomer is immersed which in this case is doubly distilled water. The sample was fixed in the top clamp and equilibrated in water at 60° C. for about an hour. The strain-gauge signal conditioner was balanced for zero force and the bottom clamp was attached to the sample. The sample was left to set overnight at room temperature. The bottom clamp was then adjusted for zero force and the distance between the clamps was measured. The elastomer was elongated to 40% extension at 5° C. and elastomeric force was then determined as a function of temperature. Equilibrium time to achieve constant force at a given temperature was typically twenty-four hours. Force measurements were made in 2° C. increments through the sharp rise in force and 5° C. increments at higher temperatures.
Thermoelasticity studies were carried out on a stress-strain apparatus. Clamping of the sample in the holder was done in two stages to prevent damage to the material at the clamp edge. The sample was first gripped lightly with the top clamp, raised to 60° C. while submerged in water within the temperature jacket and allowed to equilibrate for about 2 hours. The measured force consisting of the weight of the sample and grips in water were set to zero. The bottom grip was then attached to the sample and both grips tightened to hold the sample firmly. The bottom clamp was driven as in a stress-strain measurement and stopped at 40% elongation. Force data were recorded in 5° C. steps starting at 70° C. and continuing to 40° C. where the force approached zero.

[3] = high molecular weight, cross-linked by γ-irradiation (background); cited from earlier work
[4] = Solubility in water as a function of temperature; type: physicochemical
[5] = test system: fibroblasts; test: Checkerboard assay of Zigmond and Hirsch (chemotaxis) with fibroblasts; type: cell-based
Excerpt: The chemotaxis of the present polynonapeptide towards fibroblasts and endothelial cells can be determined and verified by the well known checkerboard assay of Zigmond and Hirsch. […] Checkerboard analysis of AGVPGFGVG and GFGVGAGVP sequences with fibroblasts using the procedure as described above afforded the following results which are represented graphically in Tables I and II.

[6] = Stress/strain studies of γ-irradiation cross-linked matrices (elastic modulus); type: physicochemical; conditions: 25 Mrad cross-linking dose

Row | Substance | onset of aggregation (coacervation) [1] [°C] | midpoint of the temperature profile of turbidity formation / coacervation ([1]; in water) | temperature of essentially full elastic contraction / maximal elastomeric force [2] | elastic modulus [3] | temperature below which soluble in water [4] | Checkerboard analysis with fibroblasts, positive control ([5]; PDGF at 30 μg/ml (Table II experiment)) | Checkerboard analysis with fibroblasts, positive control ([5]; PDGF at 60 μg/ml (Table I experiment)) | midpoint of the temperature profile of turbidity formation ([1]; in water, 1 mg/ml) | elastic modulus [6]
1 | (Val-Pro-Gly-Val-Gly)n (VPGVG; also: polymer of repeating pentamer, (VPGVG)n) [PPP, reference compound] | 24 | 25 °C | 40 °C | ~10^6 dynes/cm^2 |  |  |  |  | 
2 | H-(Gly-Gly-Val-Pro)n -OH (H-GGVP-OH; also: repeated n times (polymer)) [PTP] | 48 | 49 °C | ~70 °C |  | below 40 °C |  |  |  | 
3 | H-(Gly-Val-Gly-Ile-Pro)n -OH (H-GVGIP-OH; also: polymer, (GVGIP) repeated n times) [Ile^1 -PPP] | ~8 | 9 °C | about 25 °C |  | below 8 °C |  |  |  | 
4 | PDGF |  |  |  |  |  | 59 | 21 |  | 
5 | Poly[Ala-Gly-Val-Pro-Gly-Phe-Gly-Val-Gly]-OH [poly(VPGFGVGAG)] |  | about 8 °C |  |  | below 5 °C |  |  | about 11 °C | 10^8 dynes/cm^2
